Measured values as given in the DeepSol protein solubility set.

Test: soluble on expression in E. coli; label from the status in PepcDB or PDB records

Row | Sequence | soluble on expression in E. coli
1 | MSLHSLTRIKVLQRRCTVFHSQCESILLRYQDEDRGLQAEEEAILEQIAGLKLLLDTLRAENRQLSREEIYTLLRKQSIVRRQIKDLELQIIQIQEKRSELEKKREEFQKKSKYWLRKEGNYQRWIIRQKRFYIQREIQQEEAESEEIIEGHHHHHH | soluble
2 | GRAPRNGEKVLVEFVSANPTGPLHVGHARQAALGDAICRLYDASGWDVTREFYYNDAGNQIDNLAISVQARGRGIAPDAPDYPTDGYKGDYIVEIARDFAARKSVQASDGQPVTATGDLDSLDDIRAFAVAYLRREQDLDLQAFGLAFDNYFLESSLYASGRVQETVDTLVAKGHTYEEGGALWLRTTELGTGDDKDRVMRKSEGGYTYFVPDVAYHKVKWERGFHHAVNIQGSDHHGTVARVRAGLQGLEAGIPKDFPAYVLHKMVKVMRGGEEVKISKRAGSYVTMRDLIDWVGRDAVRYFLIQRRADTEFVFDIDLALSKSDENPVYYIQYAHARICTMIGNSGA | not soluble
3 | MGARKASAGASRAATAGVRISHPQRLIDPSIQASKLELAEFHARYADLLLRDLRERPVSLVRGPDGIGGELFFQKHAARLKIPGIVQLDPALDPGHPPLLQIRSAEALVGAVQMGSIEFHTWNASLANLERPDRFVLDLDPDPALPWKRMLEATQLSLTLLDELGLRAFLKTSGGKGMHLLVPLERRHGWDEVKDFAQAISQHLARLMPERFSAVSGPRNRVGKIFVDYLRNSRGASTVAAYSVRAREGLPVSVPVFREELDSLQGANQWNLRSLPQRLDELAGDDPWADYAGTRQRISAAMRRQLGRG | soluble
4 | MSHPWRSRGEKRTIMFGYTPSDTILKYLKDMRDLINRAILNAYSIARSNDDSLPSPITLRRSLKDYYDNNVAYAKHHINPVCRTAIAMLRSYKKNNGRLKVVKAKRLAMRIDSELAKIEDNRLRITIRPNVYEYVDIVDRNKKYSEYSKYPISEVLLTDNRVYITFITGSDDKPVIANNIIGFDLNFKSVDYTVIKDNRIAYVDSIDTYDIAKTQRDYERKRRKIQKHIRNPAKRIRKLKEAKHRQRNIVRDKLQKLTTNIVKNNEDKTFVFEDLTNIKKKGKKHKDHKRDGQSSKRFRTDINRWPYRLFQMFVEYKSKNETLYVDPEGTSSECPVCGGILEHPIWKMSKCDNCGATFDRDRLSSLSIAVRGLHLCGTPFSVSGSASWDSMKDNYLYR | not soluble
5 | MEKLYEGKAKVLYREGPDTLRVYFKDEATAFNAQKRGVIPGKGVVNNKVSAALFRYLEAHGVKTHFLEEVSDREMRVRRVEILPLEVILRFRAAGSFARRYGLKEGTPLKMPLLEFSLKNDALGDPLICENAVLALGLTTEGELEGVKAATLRVGDLLKAFFAERGLELVDFKLEFGKVGGEILLADEISPDTMRLWDEKGEPLDKDRFRKDLGGVEEAYREVLRRVLG | soluble
6 | MAHHHHHHMRTSPLWRLRMTSRPLSLERVFVINLDRRPDRWAAIQAVCARAGLPAERTERVPAVEGSRLDVNAVHHCGFVSALGLRRLKEPPEHHIWGMDLNKAALGCALSHIHLWARIAALGKVSNISAEAPAATLPKQCFLVLEDDSTFADSDDNGSDSPAASPSLPFLDQLQRRMNSVPPDWELVYVSGLDTAKQCLHMQVAKGVARVPQYHRTTNAYLVTPQGARRLLATCVPLTFQLDTAMTMNVGYPPGVVGVAGAQTLPHVLDPVCYTLQPPLMQQAAQLDTDIQH | soluble
7 | MSLSAADMTQTIKTLALNVRLSCELLGVPESSYYERINRRPSETQLRRQHLTLKIVQLFKANRGIYGAPKIHHLLLDKEEKVGVKLVQKIMQQLQLKSVVLKKFKPGYSASDGINRKNLVQNEPTERNKVWSTDITYIPTQQGWAYLSTIMDRYTKKVIAWDLGKRMTVELVQRTLNKAIKSQDYPEAVILHSDQGSQYTSLEYEELLKYYGMTHSFSRRGYPYHNASLESWHGYLKREWVYQFKYKNFEEAYQSIFWYIEAFYNSKRIHQSLGYLTPNQFEKVSAEGHHHHHH | not soluble
8 | MKRYTPDFPEMMRLCEMNFSQLRRLLPRNDAPGETVSYQVANAQYRLTIVESTRYTTLVTIEQTAPAISYWSLPSMTVRLYHDAMVAEVCSSQQIFRFKARYDYPNKKLHQRDEKHQINQFLADWLRYCLAHGAMAIPVY | not soluble
9 | MGSDKIHHHHHHMKKVTLLVLDGFGVGAMADCEKVKPEDVNANTYKHLREAVDIHIPTLYQLGLGNIVDHLDTARAAYGRCDLAHHGADTFMGHQELMGSKPGVPQKRLMSEVGATIKKNLEKHGYDVRDPVEGAPVLLVNEAVVVGDNLESEVGNIINVVGDFRKLSFEQTIEVGKVVRSSVDTSRVIVYGNKEKTSIDLILSTIKERHPGQWGVDSPKANVYGEGYQVLHLGYGVDYEKQFAHLAEKQRLPVYRIGKTADVIQASGYHNPVVSTRKVLEVYQHEYSKSERDSVFLVNVQETDLAGHKEDCLWYKEVIEEVDRFLASFIDELDEEDLLIITADHGNDPTIGHSNHTREQTPVIIVGPQVRPISIGTRQTMADLAATMADYMGVAPPQYGTSFLHQILR | not soluble
10 | MEAASIAVPGAGASLRAQALDALMTPAWADKLAAVAAIDAGAPVGAQQDLAEPAGLLGRPPAPQLVPPSQVRQRSVQSPEGRAALLHALAHIEFNAINLALDAVWRYGGLPDAYYLDWLKVAREEAYHFDLLNRHLSGLGHAYGDFPAHNGLWEMAEKTRADLLARLALVPRTLEARGLDASPLIRDKLAAAGDADGAAILEIILRDEIGHVAIGNHWYKALCAQRGLDPVAQYAQLASRYGAPRLRGPFNLEARRAAGFDEDELRALLQALEHHHHHH | not soluble
11 | MPQFASKAEEKNYYERQASLAEFLTWYHQQELPEYEKPSLTVDMVLLCYNKEADQLKVLLIQRKGHPFRNSWALPGGFVNRNESTEDSVLRETKEETGVVISQENIEQLHSFSRPDRDPRGWVVTVSYLAFIGEEPLIAGDDAKEVHWFNLERHGQHITLSHEDVEITLDLKTAASLGKDTLAFDHSEIIIKAFNRVVDKMEHEPQVLQVLGKDFTITEARKVFAKFLGVDYRSIDHSNFKKAMTQYFEELGERPVGIGRPSKIYQLKTTTGF | soluble
12 | MGSDKIHHHHHHMSSDIHLAFAHPSERSAATARPGALDRISLRDHIVEVEIGAFQQERGTTQRVCFNVVVEIAPLPADLDDDVDRILSYDKVTEAIAHELARERLALLETLAERVAERILWEPQAVRAFVRIEKLDRGPGKLGVEIVRSADQVSHEADEDVKPHPRLMFLSNAAIDSDNLTGWIDQMECRERPLILCVGAHDLALPQTGHKWTQRRIDLLAIEQNAWRLAARDSRCKVVETRTELDWAMKNGQICVWAPSKIVLDAVEGPSEPPSNAVALAAWFASTFEAEEMIVIGAELPENPGVPLRAHAEEQHTL | not soluble
13 | MKVDSLHNLSYKEEFEGDMKRSTAAYKKVSEDASIGSTYIADISEVGSQISGEPVQRIKIPEHRQILKRSLIKPVIMAGGNGKRLWPLASKDKPKQFKKILSDLTLLQQTLNRNKFLGQPTIITSKKYESITKEQATEIDVEIALITEPLQKNTAVCAIITALSATALGFDIVVLLPSNHHIADDINYLNTINKALHYVNECGICTIFL | not soluble
14 | MGSDKIHHHHHHMNIIIIGAQASGKMTIGQEIAKQTGMTLFHNHDSIDFVLRFMPWSPDSIALTESIRFKFFETFAKTGQEMIFTIVIDFNDSRDVVFLEKIQIVFQSHNQEVLFVELETELSERLKRNRTENRLKHKPSKRDIKWSESDICSTMDYAIFNPEVAPEALTYYHKINNTCLTATETAYLIIQKINQIKEKN | not soluble
15 | MRILEEDLKNSTYRIRIESLDDLWYLRNILSEGDEVSAITFRRVEESADVQRSRERERIPITIRLKVEKIEFQDFDNRLRILGTVIEGPEDTKGKHQSITVTVDSEISITKEWDDQHIDLLKEATDEKYVTVYTAVAMDEDEAQIFLIHPYGIQQVGTVYSGRSGKYAEGNYSEASYFDQIVNALKNYSNSIIILGPGFARDRFARYCAQRGVNVIGSFPANRTDSGAVYEFITSADGAKLLSNERIARDKEIVDEFLVAVKKDMGVYGRDQTESALQMGALSDLIITDEMFRTEDGRRSLSIAQTVGTRIHIVSVSNDPGQIVKKFGGFAGILRYRVQLEHHHHHH | soluble
16 | MSLKSPPKKDEENVKINNMFKCGFYSFKGNRTYNEDRVIIIEDMNNFLKENIINNIKDMETPSYIYCAIYDGHNGDNAVNIVQKLLHIHMYYYFINGNGLENSLKYSFQEIDNYLCKNIINIKEENHSNYSSGTTACVSVIFKNMLYVANIGDSRCIISKNGRAIVLTVDHRASINKKEQDRILKSGGILDDEGYLGGCLGVCRGFGSFHKKTKEKLKGLICEPDLFHIKLTDDDEFLIICCDGIFDVITSQEAVNTVKNSLIQSRDAKTAAEALCQLAYKKKSLDNLSVLVVIFQNPDKEGHHHHHH | soluble
17 | MTAPTAHDYDVVIIGGGPAGLTAAIYTGRAQLSTLILEKGMPGGQIAWSEEVENFPGFPEPIAGMELAQRMHQQAEKFGAKVEMDEVQGVQHDATSHPYPFTVRGYNGEYRAKAVILATGADPRKLGIPGEDNFWGKGVSTCATCDGFFYKGKKVVVIGGGDAAVEEGMFLTKFADEVTVIHRRDTLRANKVAQARAFANPKMKFIWDTAVEEIQGADSVSGVKLRNLKTGEVSELATDGVFIFIGHVPNTAFVKDTVSLRDDGYVDVRDEIYTNIPMLFAAGDVSDYIYRQLATSVGAGTRAAMMTERQLAALEVEGEEVTAAD | soluble
18 | MSQLNDSDIILFEYNFHYQNIRSKNTLDIAFGIDRNFLFGCGVAIASILLNNREISCEFHVFTDYISDKDKLYFSDLAKQYNSRINIYVINCDKLKSLPSTKNWTYATYFRFIIADYFYHKHEKILYLDADIACKGSIKELLDYQFSTNEIAAVVAERDVEWWQNRASVLTTPQLASGYFNAGFLLINIDEWNLNNISSKAIEMLRDPDWVSKITHLDQDVLNVLLNGKVKFISEKYNTRYSINYELKDKVDNPVNDDTVFIHYVGPTKPWHEWADYPVSRSFLIAKAASPWSKEDLLKPVNSNQYRYCAKHKFKQKHYMAGIFNYLKYYKEKCF | not soluble
19 | MGSDKIHHHHHHMAGSAGGLSASDGDFFLCDLFDPVPKGDLGTMEHPVFSLATRPDRRILTYEHNGVEITVTPSVKGRATIFDKDILIFCTSQLMAAINANRPVSRTLQLTAHDLLLATGRDRSGDGYKRLRAAFERLAGTRITTNLITGGVEVTQGFGLIEAWQIVRRTRNGRMVSVSVTLSEWLYRAALTKSVLTLSRQYFRMRKPLERRIYELARKHCGRQNEWRVSVDTLLKKSGSASPRRVFRAMLREMIAADALPDYHLQEEPGDILRVTLRDAVIEAAGRPIVSSDTLNQARALMPGWDVYVLEAEWRNWWAATGRPHLRSPDKAFLGWVRTQAARA | not soluble
20 | MAHHHHHHMSEAALKREIALQEASDVVDNKSRVLPKSPADTRERTHEVVAATEPFEHPISLRSKVSAYVTLALLFLFARLRESYRQFFPNDESHVRPGYAPIVKDFDHYWNRRFYRRVRDCFMRPIDSRPSRVIGVMERVSKDNNQTFEYSGRIVPAVNMGSYNYLGFAEDTQSITHEVLDSIDDYGLASCSAPQGLGQSALVSRLEHEFAEFLGKEDAIVCGMGFATNFRGLPTLFGKETLVLSDSLNHSSLVNGVRSSGAKVKVFQHNHFGQVEKCLREGVVLGQDPCGEYKPYKRIVIIIEGIYSMEGEIVNLKKFVELKKKYKALLFVDEAHSIGAIGRTGRGVCEHTGVDPKDVDVLMGTFTKSFGSIGGYIAADKTLVRYLRQHSSIALHCDPLAPPCAQQVLSVLHVLLGKDGTDLGEKRIRQLKDNSSFFRRGLMDLGLVVLGDDSSPVVPVMCYSIGRLSALSRLCLERGVAIVIVGYPATPLLQGRVRFCVSACHTREDLQRTLDVIRELKGYVCMEDSTNPLR | not soluble
21 | MAHHHHHHMNPHQVNPSDQIAELVVESPHFSFNCAHFIAFKGFRETLHGHNYNVSLKLRGYIQQDGYVIDFSILKEKLKRVCKQLDHHFILPMYSDVLNIQMLEDNFKIICEDKSEYSFPKRDCVQIPIKHSSTEEIGLYILNKIIEELGLPFLKARSVNYMEVTVSESPTQKATVHRNI | not soluble
